Earlier results, collected in PMC9222382.

Target: IL-10Rα (Homo sapiens) (UniProt Q13651)
Chain of UniProt Q13651 (Q13651 22-235): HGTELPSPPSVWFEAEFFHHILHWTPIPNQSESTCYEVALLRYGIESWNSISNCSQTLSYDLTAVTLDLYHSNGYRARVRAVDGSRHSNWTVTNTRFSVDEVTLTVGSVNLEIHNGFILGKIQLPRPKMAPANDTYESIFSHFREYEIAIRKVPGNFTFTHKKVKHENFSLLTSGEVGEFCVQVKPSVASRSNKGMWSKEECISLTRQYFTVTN

With IL-10 (from UniProt P22301) as the substance, how does the Kd read?
The Kd was 1 nM.
